The values below come from patent US20250382373A1, “ANTI-EGFR/MET ANTIBODIES AND USES THEREOF” (Biocytogen Pharmaceuticals (Beijing) Co., Ltd., priority 2022, published 2025).

One test deals with NUGC-4 cells. Nature of the test: NUGC-4 xenograft model (gastric cancer). Format: in vivo, B-NDG mice. As to conditions: 3 mg/kg i.v. QW x2.
Test [1] deals with patient-derived gastric tumor fragments. Nature of the test: Human gastric cancer PDX model. It is filed as in vivo, B-NDG mice. As to conditions: 10 mg/kg i.v. BIW x6. The method, then:
The mice were then injected with PBS, ADCs or Amivantamab (Janssen, Reference No.: LFS01L03) by intravenous (i.v.) administration.

The subject of test [2] is patient-derived ampullary tumor fragments. Nature of the test: Human ampullary carcinoma PDX model. Format: in vivo, B-NDG mice. As to conditions: 10 mg/kg i.v. BIW x4. Here is the method: The ADCs were tested for their effect in human ampullary carcinoma PDX model.
The mice were then injected with PBS, ADCs or Amivantamab (Janssen, Cat #: LFS0L03) by intravenous (i.v.) administration.

In the next test the test system is NCI-H1975 cells. Nature of the test: NCI-H1975 xenograft in Balb/c nude mice. Format: in vivo. The following applies: 10 mg/kg, BIW, 4 administrations, i.v. The method, then:
The mice were then injected with PBS, E-6C4-M-2F II-ADC (1.5 mg/kg, 3 mg/kg or 6 mg/kg, QW, 2 administrations in total) or Amivantamab (Janssen, Reference No.: LFS0L03) (10 mg/kg, BIW, 4 administrations in total) by intravenous (i.v.) administration.

B1: Telisotuzumab analog-ADC (conjugate, chains of the INN, looked up)
VH: QVQLVQSGAEVKKPGASVKVSCKASGYIFTAYTMHWVRQAPGQGLEWMGWIKPNNGLANYAQKFQGRVTMTRDTSISTAYMELSRLRSDDTAVYYCARSEITTEFDYWGQGTLVTVSS
VL: DIVMTQSPDSLAVSLGERATINCKSSESVDSYANSFLHWYQQKPGQPPKLLIYRASTRESGVPDRFSGSGSGTDFTLTISSLQAEDVAVYYCQQSKEDPLTFGGGTKVEIK
modifications: antibody-drug conjugate payload
For the molecule B1, the “Tumor volume Day 14” value in the test on NUGC-4 cells worked out at 60 ± 10 mm^3. Besides, the “TGI (%)” value in the test with NUGC-4 cells (Day 28) worked out at 108.1%. In addition, the “Tumor volume Day 0” value in the test with NUGC-4 cells (day of grouping) amounted to 198 ± 14 mm^3. Moreover, the “Tumor volume Day 28” value with NUGC-4 cells (end of experiment) came to 88 ± 67 mm^3. Also, the “Tumor-free (Day 28)” value in the test with NUGC-4 cells (number of tumor-free mice/total) is on record as 0/5.

B2: Amivantamab: Amivantamab (Janssen, Reference No.: LFS0L03), bispecific antibody targeting EGFR and MET (antibody, chains of the INN, looked up, V domains shown)
VH: QVQLVESGGGVVQPGRSLRLSCAASGFTFSTYGMHWVRQAPGKGLEWVAVIWDDGSYKYYGDSVKGRFTISRDNSKNTLYLQMNSLRAEDTAVYYCARDGITMVRGVMKDYFDYWGQGTLVTVSS
VL: AIQLTQSPSSLSASVGDRVTITCRASQDISSALVWYQQKPGKAPKLLIYDASSLESGVPSRFSGSESGTDFTLTISSLQPEDFATYYCQQFNSYPLTFGGGTKVEIK
VH2: QVQLVQSGAEVKKPGASVKVSCETSGYTFTSYGISWVRQAPGHGLEWMGWISAYNGYTNYAQKLQGRVTMTTDTSTSTAYMELRSLRSDDTAVYYCARDLRGTNYFDYWGQGTLVTVSS
VL2: DIQMTQSPSSVSASVGDRVTITCRASQGISNWLAWFQHKPGKAPKLLIYAASSLLSGVPSRFSGSGSGTDFTLTISSLQPEDFATYYCQQANSFPITFGQGTRLEIK
Consider B2, for which the “Tumor volume Day 28” value in test [1] was found to be 40 ± 6 mm^3. Besides, the “Tumor volume Day 56” value in test [1] was determined as 643 ± 391 mm^3. Moreover, the entries for the “TGI (%)” value in test [1] (Day 56) and in test [2] (Day 21) were 86.3% and 8%, respectively. The “Tumor volume Day 0” value is 262 ± 24 mm^3 in test [1] (day of grouping) and 273 ± 13 mm^3 in test [2] (day of grouping). Moreover, the Survival in test [1] (surviving/total mice) is on record as 5/5. Also, the “Tumor volume Day 14” value in test [2] is 756 ± 78 mm^3. For the same molecule, the “Tumor volume Day 21” value in test [2] is 1047 ± 104 mm^3. This molecule also registered a TGI in the test on NCI-H1975 cells of 12.9%.

By TGI is commonly meant how far tumour growth fell short of that in controls. Low readings indicate a weaker effect on the tumour, high ones a stronger effect on the tumour.
